Results reported in PMC2957522 (Journal of molecular biology, 2010).

B1: TgPRF β-hairpin deletion mutant (ΔBH) (natural protein)
chain: MSDWDPVVKEWLVDTGYCCAGGIANAEDGVVFAAAADDDDGWSKLYKDDNEASTIKAAVDDGSAPNGVWIGGQKYKVVRPEKGFEYNDCTFDITMCARSKGGAHLIKTPNGSIVIALYDEEKEQDKGNSRTSALAFAEYLHQSGY
B2: Toxoplasma gondii profilin (TgPRF) (natural protein)
chain: MSDWDPVVKEWLVDTGYCCAGGIANAEDGVVFAAAADDDDGWSKLYKDDHEEDTIGEDGNACGKVSINEASTIKAAVDDGSAPNGVWIGGQKYKVVRPEKGFEYNDCTFDITMCARSKGGAHLIKTPNGSIVIALYDEEKEQDKGNSRTSALAFAEYLHQSGY
modifications: selenomethionine-substituted (level of selenium substitution essentially 100%)

Molecular target: rabbit skeletal muscle actin (monomeric, Mg-εATP-actin) (rabbit, UniProt P68135 1-377)
Experiment: actin nucleotide exchange kinetics

Binder | Kd
B1 | > 150 µM
B2 | 13.9 ± 5 µM
